# Assay: soluble on expression in E. coli; label from the status in PepcDB or PDB records
row,Sequence,soluble on expression in E. coli
1,MSLRHFFGAFLLGMATLTVMPTEQVLAGTLTGQPPIVIGHRGASGYRPEHTLAAYELAIQMGADYIEPDLVATKDGVLVARHENALAILNADGTLNLTDTSTDVFERLQFADRKTTKVIDGRSITGWFTEDFTLAELKTLRAIERIPGIRPQNTQYDRQFEIPTLQEVIDLAKAQSAALGRTIGIYPETKHPTYFDSIGLSMEEILVSVLNANGYVDESAPVYIQSFEVSNLKDLNRLTNVSLVQLISPSGRPYDFVVNGDSRLYRDLITPLGLAEIATYANGIGANKNLIIPRDGRGNLLSPTTLVDDAHAAGLIVHAWTFRNEDVFLPTNLQGNPQEEYKRFYQTGIDGLFSDNPDTAFAVRSTLVPEPGTIFGLGFVPLLGWLFRRRKEGHHHHHH,not soluble
2,GPGSMAGKGNAKVVVTHPKSRKVRQLQRQSRREKRISEQKGKRNAKAALEAARFFWFREQCLALGRTKLAFSREEAQVLTEQYLKRNDEEIVALKSMRNPTAGRIKILEAMKTSEADDFNSSKGIVIPDITNSDNLEILTSIWDGRADTAGVVRRVGLTRTGVSPAAPAVTELEGKLLTIDEVRERSIDFTSRKARKFQTMKRVQSVKKTPTAEDVWLRSKKRGVDLQAKRLRQGREAVLKTRRAN,soluble
3,MKVDGKHTRTIWLEADGWTVGTIDQRRLPHDYVVVKLTSSDDAADAIRTMLVRGAPLIGATAAYGMALAMREDASDAGLDAAYAKLVATRPTAINLKWALDEMRRALAPVQPADRVAAAYRRAGEIADEDVAINQAIGASGLKLIEAIAATKKPGERVNVLTHCNAGWLATVDWGTATAPIYQAFDAGIPIHVYADETRPRNQGASLTAWELGHHGVDHTVIPDNTGGHLMQHGLVDIVIVGTDRVTADGDVCNKIGTYLKALAAADNKVPFYVALPSPTIDFTIHDGVREIPIEQREAAEVTDMTGRTNDGRIETVRIVPQGSKVANYGFDVTPARLVTGLITERGVLKADRAALAAAFPERVAQAKELLRASAAALEHHHHHH,soluble
4,MGSHHHHHHRTPSDKPVAHVVANPQAEGQLQWLNRRANALLANGVELRDNQLVVPSEGLYLIYSQVLFKGQGCPSTHVLLTHTISRIAVSYQTKVNLLSAIKSPCQRETPEGAEAKPWYEPIYLGGVFQLEKGDRLSAEINRPDYLLFAESGQVYFGIIAL,soluble
5,MGIFSRFADIVNSNISALLDKAEDPEKMIRLIIQEMEDTLVEVRTNSAKAMADKKELARKVESIEQQLEDWQNKATLALTKQREDLARAALIEKQKLQHVLKGLHTEQMLVEETIEKLTGEIGKLETKITETRAKQQALAIRSQAASHRRDVQRHLHAGRTEEAMAKFEQFSRKVDELEAEADLYAQSGQARSLEQEFAELQAQDEIEKELNKLKAQMKSDQLEHHHHHH,soluble
6,MKRDQLKSLLLGAILLAGITLPAKAQIGEQRHNFAIGINGGANYSTVSFQPTIKQNGLLGITGGVTARYISEKYFAMICGAQLELNFSQRGWDEKFDPEQGFSSEDSYVRTMNYLEIPFLAHLAFGKDKGVQFFVNLGPQIGLLLNESEKRKGTWETANRAPNEQYGKWVENKFDYGIVGGGGIEVRTKAGNFLLEGRYYFGLADFYNSTKKDYFSRSANSTITAKITYLFDIKK,not soluble
7,MSDLDTPTPSPHPVLLNLEQFLPYRLSVLSNRISGNIAKVYGDRYGMAIPEWRVITILALYPGSSASEVSDRTAMDKVAVSRAVARLLERGFIRRETHGDDRRRSMLALSPAGRQVYETVAPLVNEMEQRLMSVFSAEEQQTLERLIDRLAKDGLPRMASKD,soluble
8,MDAWFEDTAMGRYVAKLEQDFFGRYLDSYRFSGMCAVQVGGPWLSLSEDVVCVPRDMSMSAENMALADVSADMLLFPHTLEGGVPSQILSEAHRILKPCGRLMLTGFNPYSLWGFSRWFDGERLPEKRFCLPLPELKRRLADVGFDIEFGKFMVYLPPVSSLGQIRFWRFMEKAGDRWWPQCAAVYGLVLVKRAAGVTPLPAWDGYLGGKALAAGAARVAD,not soluble
9,MGSDKIHHHHHHMNLTGCGEKFYQHCKVILSEFEWATYEISYNQQYPEGELKLNTPMSFSNIFLQHIISDFIEKYPSIKIDLFMTDQLLDVNQHKFDLTIRLDGSAPSLANSKILNTYQRYLYATPEYFNQHGLPTSLEELKEHKFLIYYQDSRHKKLIFQKDQKEVSFNCFPVMTCNNGELLLDMCLKDHGIVFLPEFIAEPYYKEGKLQKCLEDYTSQPLHLYVTWPNRKILSKKVKLFIDFLTHQIIPIK,not soluble
10,MVRVVRHSRGTCNRGLYEVRELARNRTLQQWGVEDSAELYGIRNWGAGYFDVAQNGDVVVYPFGHNRGPAVSIPEIIGGMRERGYDMPVLLRIENILDSQITSLHTSFRNAIGSLGYKGEYRGIFPIKVNQQQQVVEKIAQFGSHYHHGLEVGSKAELIAAVSQLRDREACLVCNGYKDEEFIDLGLHAVRLGFMCIFVLEMPGELDLILERGEALGVKPIIGVRAKLSVKAGGHWTDSGGERSTFGLTTSQIVDVVDRLKEKGMLDCFKLLHYHLGSQVPNIRDIRAAVMEACRIYAGLVQEGAAMGFLDLGGGLAVDYDGSHTNFVSSRNYTLDEYCADIVEAVMTTLDEQNIPHPHIVTESGRATVAYYSMLLFNILDVSRVEIGNLPDALPEDTPEPVRNMREVLAGMTLRNLQECYNDALYYRDAVRQLFLTGQVTLRQRTLSERLFWAIMKRIAQEKQKLKHVPKDLAEIDVALADIYYGNFSVFQSLPDSWAIDQLFPVMPVHRLQELPSRQGILSDITCDSDGRIDHFIDPQGMKGTLDLHPLRDGEEYYLGVFLVGAYQETLGDLHNLLGDTNVVSVRVHEDGTYEFVREIRGDSVADILSYVEYDPRRIYEDIRELAERAVREGRITASDRFRVMQAYEDGLRGYTYFERLEHHHHHH,not soluble
11,MRGSVAALLLAAGRSIRMGRCKQLLPLGNTTVLGRCLDTLRRGGVGEIAVVVSADGEQVARAAAGHGVRVVVNPDREGDMASSVRAGRDAFGSAVGGVIVSLCDQPLVAAGTVARLRDRHATEPGRIIIPTHGGRRGHPLLFPLPVLAELEDGLTLRDLVVCDPARVCCVAVADPGILIDMDTPEDYRHVCRLMAPQEGLSLRLEHHHHHH,not soluble
12,EQTALKKVAEMARLADSYVSAWGDEAKVSDETLRRLLTSLGYDTSSDEKLLASAEKKHKKDVLAPVLVLRDGEPVEVELNLGTSARESEFSWRLETEQGEVLEGYLQSQIVRDERAEGGPLVFALPKNLAWGYHKLIISRKRRKTPYEMSLIITPKACFKQEDLNQ,not soluble
13,MRRRSGINTSAVRYCLRKRKDITLLNPIVRKFQYGQHTVTLETGMMARQATAAVMVSMDDTAVFVTVVGQKKAKPGQDFFPLTVNYQERTYAAGRIPGSFFRREGRPSEGETLIARLIDRPIRPLFPEGFVNEVQVIATVVSVNPQVNPDIVAMIGASAALSLSGIPFNGPIGAARVGYINDQYVLNPTQDELKESKLDLVVAGTEAAVLMVESEAELLSEDQMLGAVVFGHEQQQVVIQNINELVKEAGKPRWDWQPEPVNEALNARVAALAEARLSDAYRITDKQERYAQVDVIKSETIATLLAEDETLDENELGEILHAIEKNVVRSRVLAGEPRIDGREKDMIRGLDVRTGVLPRTHGSALFTRGETQALVTATLGTARDAQVLDELMGERTDTFLFHYNFPPYSVGETGMVGSPKRREIGHGRLAKRGVLAVMPDMDKFPYTVRVVSEITESNGSSSMASVCGASLALMDAGVPIKAAVAGIAMGLVKEGDNYVVLSDILGDEDHLGDMDFKVAGSRDGISALQMDIKIEGITKEIMQVALNQAKGARLHILGVMEQAINAPRGDISEFAPRIHTIKINPDKIKDVIGKGGSVIRALTEETGTTIEIEDDGTVKIAATDGEKAKHAIRRIEEITAEIEVGRVYTGKVTRIVDFGAFVAIGGGKEGLVHISQIADKRVEKVTDYLQMGQEVPVKVLEVDRQGRIRLSIKEATEQSQPAAAPEAPAAEQGE,not soluble
14,MSESRLLTLRDYIRWAVSRFHAAGLFFGHGTDNAWDEARHLVLGSLHLPWEISDSYLDCRLEDDERAELAEILRRRIEERIPAAYLLGEAWFCGIPFSVDERVLVPRSPIAELIEQRFAPWLPAEPARILDLCTGSGCIGIACAYAFEQAEVVLADLSFDALEVANVNIERHDLGERVYTVQGDGFAGLPGQRFDLIVSNPPYVDAEDFADMPAEFHHEPELGLACGDDGLDLVRRMLAEAADHLSEKGLLIVEVGNSEVHVQALYPEVDFTWLEFEHGGHGVFMLSAAQCREHRELFRSRLEK,not soluble
15,MIRLAPLITADVDTTTLPGGKASDAAQDFLALLSEALAGETTTDKAAPQLLVATDKPTAKGEPLVSDILSDAQQADLLIPVDETPPVINDEQSTLTPLTTAQTMTLAAVADKNTTKDEKADDLNEDVTASLSALFAMLPGFDNTPKVTDAPSTVLPAEKPTLFTKLTSAQLTTAQPDDAPGTPAQPLTPLVAEAQSKAEVISTPSPVTADASPLITPHQTQPLPTVAAPVLSAPLGSHEWQQSLSQHISLFTRQGQQSAELRLHPQDLGEVQISLKVDDNQAQIQMISPHQHVRAALEAALPVLRTQLAESGIQLGQSNISGESFSGQQQAASQQQQSQRTANHEPLAGEDDDTLPVPVSLQGRVTGNSGVDIFA,soluble
16,MSLSKIFVTGATGLIGIKLVQRLKEEGHEVAGFTTSENGQQKLAAINVKAYIGDILKADTIDQALADFKPEIIINQITDLKNVDMAANTKVRIEGSKNLIDAAKKHDVKKVIAQSIAFMYEPGEGLANEETSLDFNSTGDRKVTVDGVVGLEEETARMDEYVVLRFGWLYGPGTWYGKDGMIYNQFMDGQVTLSDGVTSFVHLDDAVETSIQAIHFENGIYNVADDAPVKGSEFAEWYKEQLGVEPNIDIQPAQPFERGVSNEKFKAQGGTLIYKTWKDGMNPIKEGHHHHHH,soluble
17,MDLSTSGSLPCHLPLSLLTNLQTPPIDTSFSSPPATSSSSLLSPSPSSAFRPVVPKSLMNPQPAMDTFYMSAIQSLVVSTTNDDQYSEHGALEGSKSLAKDENASTSAGTILCQVCSDKASGFHYGVFACEGCKGFFRRSIQQKITYRACTRAEDCLILRNNRNRCQCCRLKKCLAVGMSRDAVRFGRVPKREKARMFEEMQKTNVQSQRDQIAIQYENLTEVMHKINQAFGTLQATLEKCTGPIYTDRCPITSNFIVIPLKAAIDFANSIPAFLSITQTQRVHLLQNSVFDVMLLASASASTSQHFPPGGLTYDQSSANPIIPQAIQSISARIRQLPPQTVPILTAIAVCQADLLPESQQPMLLAERLWCVLGKLGGIQSLATAPSLLADVRTLRQWHSDRLRQMSQISQHFSQNLLIAPVAAAAPVLLPPAFLSPPASATSTSSSSVKSEFIERHPSIASLLERPRRISSSGAQEPLNLSLPHVRHQVKRDVDSDEQLEEMKVSPVPTTLSE,not soluble
18,MHHHHHHSSGRENLYFQGMTVREKTRLEKFRQLLSSQNTDLDELRKCSWPGVPREVRPITWRLLSGYLPANTERRKLTLQRKREEYFGFIEQYYDSRNEEHHQDTYRQIHIDIPRTNPLIPLFQQPLVQEIFERILFIWAIRHPASGYVQGINDLVTPFFVVFLSEYVEEDVENFDVTNLSQDMLRSIEADSFWCMSKLLDGIQDNYTFAQPGIQKKVKALEELVSRIDEQVHNHFRRYEVEYLQFAFRWMNNLLMRELPLRCTIRLWDTYQSEPEGFSHFHLYVCAAFLIKWRKEILDEEDFQGLLMLLQNLPTIHWGNEEIGLLLAEAYRLKYMFADAPNHYRR,soluble
19,KVWKPGDECFALYWEDNKFYRAEVEALHSSGMTAVVKFTDYGNYEEVLLSNIKPVQTEAWVRDPN,soluble
20,MGHHHHHHSHMAGWIQAQQLQGDALRQMQVLYGQHFPIEVRHYLAQWIESQPWDAIDLDNPQDRAQATQLLEGLVQELQKKAEHQVGEDGFLLKIKLGHYATQLQKTYDRCPLELVRCIRHILYNEQRLVREANNCSSP,not soluble

# From the DeepSol protein solubility set
